Measured values taken from patent US20210024652A1.

Biological target: plasma membrane calcium ATPase PMCA4b, P23634
Assay: cell-based or functional assay

plasma membrane calcium ATPase PMCA4b, P23634, sequence (P23634 whole entry): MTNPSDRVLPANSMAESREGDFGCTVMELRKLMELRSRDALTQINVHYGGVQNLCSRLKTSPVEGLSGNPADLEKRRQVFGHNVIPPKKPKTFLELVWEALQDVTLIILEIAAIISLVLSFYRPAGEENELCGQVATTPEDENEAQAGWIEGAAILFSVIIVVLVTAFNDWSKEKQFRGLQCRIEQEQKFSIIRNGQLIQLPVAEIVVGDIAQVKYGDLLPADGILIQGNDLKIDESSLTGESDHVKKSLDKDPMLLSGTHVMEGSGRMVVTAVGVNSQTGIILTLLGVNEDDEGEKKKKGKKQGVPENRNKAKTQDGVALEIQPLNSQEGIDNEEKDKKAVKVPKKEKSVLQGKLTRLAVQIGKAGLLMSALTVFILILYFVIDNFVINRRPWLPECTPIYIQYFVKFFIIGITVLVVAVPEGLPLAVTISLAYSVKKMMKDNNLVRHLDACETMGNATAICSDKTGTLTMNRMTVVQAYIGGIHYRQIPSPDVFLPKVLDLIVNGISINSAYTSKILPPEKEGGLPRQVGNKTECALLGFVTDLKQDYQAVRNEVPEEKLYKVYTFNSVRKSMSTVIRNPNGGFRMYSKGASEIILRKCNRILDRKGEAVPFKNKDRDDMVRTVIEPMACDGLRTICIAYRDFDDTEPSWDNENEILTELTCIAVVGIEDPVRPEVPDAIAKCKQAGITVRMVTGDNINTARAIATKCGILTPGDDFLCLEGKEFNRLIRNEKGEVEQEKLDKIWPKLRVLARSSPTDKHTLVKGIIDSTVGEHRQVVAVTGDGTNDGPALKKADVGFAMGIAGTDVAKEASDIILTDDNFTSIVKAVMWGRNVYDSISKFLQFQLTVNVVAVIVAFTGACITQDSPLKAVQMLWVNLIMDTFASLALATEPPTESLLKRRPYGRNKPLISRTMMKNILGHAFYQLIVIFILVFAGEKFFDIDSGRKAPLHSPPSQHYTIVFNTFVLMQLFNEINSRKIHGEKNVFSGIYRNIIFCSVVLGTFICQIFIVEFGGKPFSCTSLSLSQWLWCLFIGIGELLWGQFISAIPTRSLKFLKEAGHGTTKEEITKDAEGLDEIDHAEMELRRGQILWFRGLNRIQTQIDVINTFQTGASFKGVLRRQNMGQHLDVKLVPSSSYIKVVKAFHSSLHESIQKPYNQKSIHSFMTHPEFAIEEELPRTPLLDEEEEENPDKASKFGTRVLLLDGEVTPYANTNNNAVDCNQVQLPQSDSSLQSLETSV

Binder: CIRFVSIDNKKRNIESSEIG [RNLS peptide RP-220]
- decrease in RNLS dependent ERK phosphorylation in MiaPaCa2 cells after PMCA4b siRNA, western blot: 70%
